# From patent publication US20090018099
# B1: purified PKD1 (protein)
# chain: MSAPPVLRPPSPLLPVAAAAAAAAAALVPGSGPGPAPFLAPVAAPVGGISFHLQIGLSREPVLLLQDSSGDYSLAHVREMACSIVDQKFPECGFYGMYDKILLFRHDPTSENILQLVKAASDIQEGDLIEVVLSASATFEDFQIRPHALFVHSYRAPAFCDHCGEMLWGLVRQGLKCEGCGLNYHKRCAFKIPNNCSGVRRRRLSNVSLTGVSTIRTSSAELSTSAPDEPLLQKSPSESFIGREKRSNSQSYIGRPIHLDKILMSKVKVPHTFVIHSYTRPTVCQYCKKLLKGLFRQGLQCKDCRFNCHKRCAPKVPNNCLGEVTINGDLLSPGAESDVVMEEGSDDNDSERNSGLMDDMEEAMVQDAEMAMAECQNDSGEMQDPDPDHEDANRTISPSTSNNIPLMRVVQSVKHTKRKSSTVMKEGWMVHYTSKDTLRKRHYWRLDSKCITLFQNDTGSRYYKEIPLSEILSLEPVKTSALIPNGANPHCFEITTANVVYYVGENVVNPSSPSPNNSVLTSGVGADVARMWEIAIQHALMPVIPKGSSVGTGTNLHRDISVSISVSNCQIQENVDISTVYQIFPDEVLGSGQFGIVYGGKHRKTGRDVAIKIIDKLRFPTKQESQLRNEVAILQNLHHPGVVNLECMFETPERVFVVMEKLHGDMLEMILSSEKGRLPEHITKFLITQILVALRHLHFKNIVHCDLKPENVLLASADPFPQVKLCDFGFARIIGEKSFRRSVVGTPAYLAPEVLRNKGYNRSLDMWSVGVIIYVSLSGTFPFNEDEDIHDQIQNAAFMYPPNPWKEISHEAIDLINNLLQVKMRKRYSVDKTLSHPWLQDYQTWLDLRELECKIGERYITHESDDLRWEKYAGEQGLQYPTHLINPSASHSDTPETEETEMKALGERVSIL
# Experiments:
# [1] = target: recombinant GST-Flag-CERT(1-138) wild type fusion protein, produced in E. coli [GST: P08515]
# [2] = target: recombinant GST-Flag-CERT-S132A(1-138) fusion protein, produced in E. coli [GST: P08515]
protein,measurement,setting,value
B1,"incorporation of radioactivity (in vitro kinase assay with [gamma-32P]-ATP, PhosphoImager)",[1],incorporation of radioactivity is detected
same,"incorporation of radioactivity (in vitro kinase assay with [gamma-32P]-ATP, PhosphoImager)",[2],This is significantly impaired in the case of the CERT-S132A fusion protein
